Results on one protein are retold here after PMC8431773, “Novel Cold-Adapted Recombinant Laccase KbLcc1 from Kabatiella bupleuri G3 IBMiP as a Green Catalyst in Biotransformation” (International Journal of Molecular Sciences, 2021).

Holding throughout (assay): purified protein
Substrate in series [1]: COc1ccccc1O
The settings on record: pH 5.5, 30 °C, 2.5-20.0 mM substrate.

Substrate in series [2]: CCn1c(=NN=c2sc3cc(S(=O)(=O)O)ccc3n2CC)sc2cc(S(=O)(=O)O)ccc21
The format is biochemical, Aureobasidium bupleuri. Conditions: pH 3.5, 30 °C, 0.2-4.0 mM substrate.

Substrate in series [3]: COc1cc(/C=C/C(=O)O)cc(OC)c1O
The format is biochemical, Aureobasidium bupleuri. Conditions: pH 6.5 (abstract prints optimum pH 6.0), 30 °C, 3.0-150 µM substrate.

Substrate in series [4]: COc1cc(C=NN=Cc2cc(OC)c(O)c(OC)c2)cc(OC)c1O
It counts as biochemical, Aureobasidium bupleuri. The settings on record: pH 7.0, 30 °C, 5.5-40.0 µM substrate.

B1: KbLcc1 (Aureobasidium bupleuri) (protein)
chain: MHLQKLSGLCLLAFASVSWADAVPGDRYLWGADRMGKMVRRATTTSKASSTTAKASTSSVKTSSVSSASSKSSSNIVASVSSSPPASSASSASSTSSLVADAACTHGPNSRACWGNGYSIKTDFDLKHPTTGNTVTYNLEITNTTCNPDGNGDMPCYLINNQFPGPTIVADWGDKVIINVKNSLQNNGTSLHWHGVRQLSSVGSDGVGGITECPIAPGQSRTYSFLATQFGTSWYHSHYSSQYGMGVVGQVVINGPSSSNYDIDLGTFPITDLYYGLANNVNEMTLHNLQNNLPPPDGSNILVNGKGKSAKGGSYSQMSLTKGKKHRLRLINTSVDNAVRVKLDGHSFTVMSADFIPIKPLTNQGWILLAVGQRYDVVFTANQTPGNYFFRAEVATDCFSGNTGKGRALFTYSEVTAAEPTDSNEVAPTNGCTELNTVPYWTQAVDQSQYAAQVKTLKTGVAPGLTTNGQNFALWNLDTRAMMVRWDRPTIQYVFEGNTSYPDPYAVIEIPTEGTWTYWLIQMGPQNPPLPHPIHLHGHDFFVLGSGAGTFDATTAVLNFANPPRRDTSILPGLGWLLISFPANNPGIWLMHCHIAWHISEGLGVQFIEAKNSIAMPDKTTFNAECDSWRTYSKNMAWPQIDSGL
notes: full ORF of 649 residues (1938 bp, intron removed) cloned from its own ATG behind alpha-factor secretion signal (pPINKalpha-HF); tag not given; secreted from Pichia pastoris (PichiaPink strain 1)
As for B1, in series [1], the Km was 13280 µM, the Vmax was found to be 4.7 µmol/min/mg, the kcat stood at 5.45 s⁻¹ and the kcat/Km amounted to 410 M⁻¹ s⁻¹. For the same protein, in series [2], the Km came out at 580 µM, the Vmax is 34.2 µmol/min/mg, the kcat was determined as 39.6 s⁻¹ and the kcat/Km amounted to 68400 M⁻¹ s⁻¹. Moreover, in series [3], the Km stood at 15 µM, the Vmax is 1.39 µmol/min/mg, the kcat worked out at 1.61 s⁻¹ and the kcat/Km came out at 109000 M⁻¹ s⁻¹. In addition, in series [4], the Michaelis constant (Km) was 21 µM, the Vmax came out at 33 µmol/min/mg, the kcat came to 38.3 s⁻¹ and the specificity constant (kcat/Km) came out at 1.81e+06 M⁻¹ s⁻¹.

By Km is commonly meant the concentration of substrate that gives half-maximal velocity. By Vmax is commonly meant the rate approached at saturating substrate. What is called kcat is the number of substrate molecules converted per active site and unit of time at saturation. By kcat/Km is commonly meant the turnover number divided by the Michaelis constant.
